Data: the supplement of paper PMC12855868

B1: library; numbered along this chain (parent)
chain: MAAAGGARLLRAASAVLGGPAGRWLHHAGSRAGSSGLLRNRGPGGSAEASRSLSVSARARSSSEDKITVHFINRDGETLTTKGKVGDSLLDVVVENNLDIDGFGACEGTLACSTCHLIFEDHIYEKLDAITDEENDMLDLAYGLTDRSRLGCQICLTKSMDNMTVRVPETVADARQSIDVGKTS

Variants of: B1
Assay: scaled log2 fold change in cell abundance, elesclomol vs control (0 = silent mean, 1 = nonsense mean) (scaled log2 ratio); higher = higher viability under elesclomol (loss of FDX1 cuproptosis function)
Details: with HEK293T FDX1 KO; elesclomol 40 nM; glucose 10 mM; 11 days
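Note: variant abundance is its share of total variant reads in each endpoint sample, from next-generation sequencing of the integrated ORF PCR-amplified out of genomic DNA.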

Variant | scaled log2 fold change
S88P | -0.895
S88M | 0.379
V171G | 0.349
L89I | -0.0352
A129N | 0.865
T157W | -0.456
E107S | -0.279
E125I | -0.618
D173I | 0.102
L127C | 0.0207
P168G | -0.0258
